# Test results reported in patent US20190144543A1 (TAYU HUAXIA BIOTECH MEDICAL GROUP, published 2019).
# Where a chain is given by its changes, count along the chain named.
# B1: Variant 3 (TY101) (humanized, VH variant a / VK variant c) (antibody, V domains shown)
# VH: EVQLVESGGGLVQPGGSLRLSCAASGFTFSSYTMSWVRQAPGKGLEWVSYISHGGGDTYYADSVKGRFTISRDNSKNTLYLQMNSLRAEDTAVYYCARHSGYERGYYYVMDYWGQGTLVTVSS
# VL: DIQLTQSPDSLSVSLGERATINCKASESVDYYGFSFLNWFQQKPGQPPKLLIYAASNRQSGVPDRFSGSGSGTDFTLTISSLQAEDVAVYFCQQSKEVPWTFGQGTKLEIKR
# notes: hIgG4 is the negative control; also called mutant combination 3
# B2: TY101-4G1 (antibody, V domains shown)
# VH: B1 VH
# VL: B1 VL
# notes: TY101 is Variant 3 (VH a, VK c); isotype control is hIgG4; also called TY101 clone TY101-4G1
# B3: TY101-01-09 (antibody, V domains shown)
# VH: B1 VH
# VL: B1 VL
# notes: TY101 is Variant 3 (VH a, VK c); isotype control is hIgG4; also called TY101 clone TY101-01-09
# B4: TY101-04-T3-05 (antibody, V domains shown)
# VH: B1 VH
# VL: B1 VL
# notes: TY101 is Variant 3 (VH a, VK c); isotype control is hIgG4; also called TY101 clone TY101-04-T3-05
# B5: Variant 4 (humanized, VH variant b / VK variant a) (antibody, V domains shown)
# VH: B1 VH with A61P
# VL: B1 VL with Q3V, L4M, S12A, A25S, Q59E, F91Y
# notes: also called mutant combination 4
# Key:
# [1] = molecular target: T1, human PD-1 (hPD-1) expressed on cells (human, UniProt Q15116 25-288)
# T1 sequence (Q15116 25-288): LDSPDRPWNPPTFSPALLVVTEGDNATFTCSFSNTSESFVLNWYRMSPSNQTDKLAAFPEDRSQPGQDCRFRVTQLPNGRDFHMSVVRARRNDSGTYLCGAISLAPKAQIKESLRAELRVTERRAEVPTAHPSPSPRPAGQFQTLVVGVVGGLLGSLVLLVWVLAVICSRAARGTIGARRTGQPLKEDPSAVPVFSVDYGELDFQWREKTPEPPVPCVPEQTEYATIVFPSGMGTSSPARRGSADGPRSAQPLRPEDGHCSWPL
# [2] = molecular target: T1, human PD-1 (hPD-1) expressed on cells; assay: cell based RBA (hPD-1/hPD-L1): blocking of Biotin-hPD-L1 binding to CHOK1-hPD-1 cells, flow cytometry
# [3] = molecular target: T1, human PD-1 (hPD-1) expressed on cells; assay: cell-based or functional assay
# [4] = molecular target: T2, hPD-1mIg fusion protein (human; mouse, UniProt Q15116 25-170); assay: SPR, Biacore T200, hPD-1mIg immobilized at 33 RU on CM5, antibody as analyte
# T2 construct: extracellular domain; also called hPD-mIg; not shown: CH2-CH3 domain of mouse IgG2a heavy chain (plasmid pmIgG)
# T2 sequence (Q15116 25-170): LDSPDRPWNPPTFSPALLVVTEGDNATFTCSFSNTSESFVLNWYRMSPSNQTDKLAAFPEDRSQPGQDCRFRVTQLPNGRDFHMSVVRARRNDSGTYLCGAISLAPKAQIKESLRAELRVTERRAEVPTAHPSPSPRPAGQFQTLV
# [5] = molecular target: T3, cynomolgus monkey PD-1 (cPD-1) expressed on cells (cynomolgus monkey, UniProt B0LAJ3 25-288); assay: flow cytometry, FACS binding to CHOK1-cPD-1 cells
# T3 construct: also called CHOK1-cPD-1; PD-1 on cynomolgus monkey T cell
# T3 sequence (B0LAJ3 entry or part of it limits assumed): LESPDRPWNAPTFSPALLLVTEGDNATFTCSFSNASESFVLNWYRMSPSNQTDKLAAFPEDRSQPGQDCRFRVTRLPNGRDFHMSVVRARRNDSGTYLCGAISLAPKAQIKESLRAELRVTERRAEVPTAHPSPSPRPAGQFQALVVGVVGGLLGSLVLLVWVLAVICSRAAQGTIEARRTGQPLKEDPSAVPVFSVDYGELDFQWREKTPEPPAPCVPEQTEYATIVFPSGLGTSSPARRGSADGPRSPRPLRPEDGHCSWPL
# Experimental: (§1) The bindings of the antibodies to hPD-1 and cross-reactivity to cynomolgus monkey PD-1 (cPD-1) were tested using hPD-1 or cPD-1 expressing CHOK1 cells by flow cytometry. CHOK1-hPD-1, CHOK1-cPD-1 and CHOK1 blank cells were incubated with a serial dilution of test articles followed by Alexa Fluor® 488 conjugated goat anti-human IgG (H+L) antibody, and analyzed using a FACSCanto II (BD Biosciences, San Jose, Calif.).
# [6] = molecular target: T1, human PD-1 (hPD-1) expressed on cells; assay: flow cytometry, FACS binding to CHOK1-hPD-1 cells
# Experimental: as §1
# [7] = molecular target: T2, hPD-1mIg fusion protein; assay: SPR, Biacore T100, hPD-1mIg immobilized on CM5, antibody as analyte
# Experimental: The binding affinity and kinetics of the humanized PD-1 mAbs interact with hPD-1 protein was assessed with Biacore T100 (GE Healthcare Life Sciences). […] Nine different concentrations were tested for each sample. Detailed binding kinetic parameters (association rate, Ka, dissociation rate, Kd, and affinity constant, KD) can be determined by full kinetic analysis.
molecule,measurement,setting,value
control human IgG4 (antibody),"EC50 of luciferase signal (RLU), PD-1/PD-L1 Blockade Bioassay with Jurkat-PD1 and CHO-PD-L1 cells; the Ctrl IgG4 curve is flat at about 270000 RLU and never rises",[1],12.4 µg/mL
same,Inhibition rate,[2],4.8%
B1,"EC50 of luciferase signal (RLU), PD-1/PD-L1 Blockade Bioassay with Jurkat-PD1 and CHO-PD-L1 cells",[3],0.224 µg/mL
same,"fold slower dissociation rate Kd than the two commercial antibodies (Pembrolizumab, Nivolumab)",[4],10 times
B2,EC50 (read off the curve),[5],~2 nM
same,EC50 (read off the curve),[6],~0.9 nM
B3,EC50 (read off the curve),[5],~2 nM
same,EC50 (read off the curve),[6],~0.9 nM
B4,EC50 (read off the curve),[5],~2 nM
same,EC50 (read off the curve),[6],~0.9 nM
B5,kon,[7],119000 M⁻¹ s⁻¹
